Measurements from patent US20220306695A1, “COMPSTATIN ANALOGUES AND THEIR MEDICAL USES” (priority 2019, published 2022).
Positions of bridges follow the written chain, without caps; N, C: chain ends. Non-standard residues stand in square brackets, D forms with d. Trp(1-Me) = Cn1cc(C[C@H](N)C(=O)O)c2ccccc21; 1Nal = N[C@@H](Cc1cccc2ccccc12)C(=O)O; 2Nal = N[C@@H](Cc1ccc2ccccc2c1)C(=O)O; Sar = CNCC(=O)O

B1: Compound 56 (peptide)
peptide: Ac-EGSAFCI[1Nal]QDWGEHRCTE-NH2
modifications: disulfide 6-16
SMILES: CC[C@H](C)[C@@H]1NC(=O)[C@@H](NC(=O)[C@H](Cc2ccccc2)NC(=O)[C@H](C)NC(=O)[C@H](CO)NC(=O)CNC(=O)[C@H](CCC(=O)O)NC(C)=O)CSSC[C@@H](C(=O)N[C@H](C(=O)N[C@@H](CCC(=O)O)C(N)=O)[C@@H](C)O)NC(=O)[C@H](CCCNC(=N)N)NC(=O)[C@H](Cc2c[nH]cn2)NC(=O)[C@H](CCC(=O)O)NC(=O)CNC(=O)[C@H](Cc2c[nH]c3ccccc23)NC(=O)[C@H](CC(=O)O)NC(=O)[C@H](CCC(N)=O)NC(=O)[C@H](Cc2cccc3ccccc23)NC1=O
B2: Compound 58 (peptide)
peptide: Ac-EGSAFCI[Trp(1-Me)]QDWGEHRCEGE-NH2
modifications: disulfide 6-16
SMILES: CC[C@H](C)[C@@H]1NC(=O)[C@@H](NC(=O)[C@H](Cc2ccccc2)NC(=O)[C@H](C)NC(=O)[C@H](CO)NC(=O)CNC(=O)[C@H](CCC(=O)O)NC(C)=O)CSSC[C@@H](C(=O)N[C@@H](CCC(=O)O)C(=O)NCC(=O)N[C@@H](CCC(=O)O)C(N)=O)NC(=O)[C@H](CCCNC(=N)N)NC(=O)[C@H](Cc2c[nH]cn2)NC(=O)[C@H](CCC(=O)O)NC(=O)CNC(=O)[C@H](Cc2c[nH]c3ccccc23)NC(=O)[C@H](CC(=O)O)NC(=O)[C@H](CCC(N)=O)NC(=O)[C@H](Cc2cn(C)c3ccccc23)NC1=O
B3: Compound 59 (peptide)
peptide: Ac-EGSAYCI[Trp(1-Me)]QDWGEHRCTE-NH2
modifications: disulfide 6-16
SMILES: CC[C@H](C)[C@@H]1NC(=O)[C@@H](NC(=O)[C@H](Cc2ccc(O)cc2)NC(=O)[C@H](C)NC(=O)[C@H](CO)NC(=O)CNC(=O)[C@H](CCC(=O)O)NC(C)=O)CSSC[C@@H](C(=O)N[C@H](C(=O)N[C@@H](CCC(=O)O)C(N)=O)[C@@H](C)O)NC(=O)[C@H](CCCNC(=N)N)NC(=O)[C@H](Cc2c[nH]cn2)NC(=O)[C@H](CCC(=O)O)NC(=O)CNC(=O)[C@H](Cc2c[nH]c3ccccc23)NC(=O)[C@H](CC(=O)O)NC(=O)[C@H](CCC(N)=O)NC(=O)[C@H](Cc2cn(C)c3ccccc23)NC1=O
B4: Compound 60 (peptide)
peptide: Ac-EGSAFCI[2Nal]QDWGEHRCTE-NH2
modifications: disulfide 6-16
SMILES: CC[C@H](C)[C@@H]1NC(=O)[C@@H](NC(=O)[C@H](Cc2ccccc2)NC(=O)[C@H](C)NC(=O)[C@H](CO)NC(=O)CNC(=O)[C@H](CCC(=O)O)NC(C)=O)CSSC[C@@H](C(=O)N[C@H](C(=O)N[C@@H](CCC(=O)O)C(N)=O)[C@@H](C)O)NC(=O)[C@H](CCCNC(=N)N)NC(=O)[C@H](Cc2c[nH]cn2)NC(=O)[C@H](CCC(=O)O)NC(=O)CNC(=O)[C@H](Cc2c[nH]c3ccccc23)NC(=O)[C@H](CC(=O)O)NC(=O)[C@H](CCC(N)=O)NC(=O)[C@H](Cc2ccc3ccccc3c2)NC1=O
B5: Compound 69 (peptide)
peptide: Ac-YCI[Trp(1-Me)]QDWGEHRCTESGA-NH2
modifications: disulfide 2-12
SMILES: CC[C@H](C)[C@@H]1NC(=O)[C@@H](NC(=O)[C@H](Cc2ccc(O)cc2)NC(C)=O)CSSC[C@@H](C(=O)N[C@H](C(=O)N[C@@H](CCC(=O)O)C(=O)N[C@@H](CO)C(=O)NCC(=O)N[C@@H](C)C(N)=O)[C@@H](C)O)NC(=O)[C@H](CCCNC(=N)N)NC(=O)[C@H](Cc2c[nH]cn2)NC(=O)[C@H](CCC(=O)O)NC(=O)CNC(=O)[C@H](Cc2c[nH]c3ccccc23)NC(=O)[C@H](CC(=O)O)NC(=O)[C@H](CCC(N)=O)NC(=O)[C@H](Cc2cn(C)c3ccccc23)NC1=O
B6: Compound 57 (peptide)
peptide: Ac-EGSAFCI[Trp(1-Me)]QDWGEHRCTE-NH2
modifications: disulfide 6-16
SMILES: CC[C@H](C)[C@@H]1NC(=O)[C@@H](NC(=O)[C@H](Cc2ccccc2)NC(=O)[C@H](C)NC(=O)[C@H](CO)NC(=O)CNC(=O)[C@H](CCC(=O)O)NC(C)=O)CSSC[C@@H](C(=O)N[C@H](C(=O)N[C@@H](CCC(=O)O)C(N)=O)[C@@H](C)O)NC(=O)[C@H](CCCNC(=N)N)NC(=O)[C@H](Cc2c[nH]cn2)NC(=O)[C@H](CCC(=O)O)NC(=O)CNC(=O)[C@H](Cc2c[nH]c3ccccc23)NC(=O)[C@H](CC(=O)O)NC(=O)[C@H](CCC(N)=O)NC(=O)[C@H](Cc2cn(C)c3ccccc23)NC1=O
B7: Compound 65 (peptide)
peptide: Ac-YCI[2Nal]QDWGEHRCTGAES-NH2
modifications: disulfide 2-12
SMILES: CC[C@H](C)[C@@H]1NC(=O)[C@@H](NC(=O)[C@H](Cc2ccc(O)cc2)NC(C)=O)CSSC[C@@H](C(=O)N[C@H](C(=O)NCC(=O)N[C@@H](C)C(=O)N[C@@H](CCC(=O)O)C(=O)N[C@@H](CO)C(N)=O)[C@@H](C)O)NC(=O)[C@H](CCCNC(=N)N)NC(=O)[C@H](Cc2c[nH]cn2)NC(=O)[C@H](CCC(=O)O)NC(=O)CNC(=O)[C@H](Cc2c[nH]c3ccccc23)NC(=O)[C@H](CC(=O)O)NC(=O)[C@H](CCC(N)=O)NC(=O)[C@H](Cc2ccc3ccccc3c2)NC1=O
B8: Compound 70 (peptide)
peptide: Ac-EGSAYCI[Trp(1-Me)]QEWGEHRC[Sar]E-NH2
modifications: disulfide 6-16
SMILES: CC[C@H](C)[C@@H]1NC(=O)[C@@H](NC(=O)[C@H](Cc2ccc(O)cc2)NC(=O)[C@H](C)NC(=O)[C@H](CO)NC(=O)CNC(=O)[C@H](CCC(=O)O)NC(C)=O)CSSC[C@@H](C(=O)N(C)CC(=O)N[C@@H](CCC(=O)O)C(N)=O)NC(=O)[C@H](CCCNC(=N)N)NC(=O)[C@H](Cc2c[nH]cn2)NC(=O)[C@H](CCC(=O)O)NC(=O)CNC(=O)[C@H](Cc2c[nH]c3ccccc23)NC(=O)[C@H](CCC(=O)O)NC(=O)[C@H](CCC(N)=O)NC(=O)[C@H](Cc2cn(C)c3ccccc23)NC1=O
B9: Compound 64 (peptide)
peptide: Ac-FCI[2Nal]QDWGEHRCTGAES-NH2
modifications: disulfide 2-12
SMILES: CC[C@H](C)[C@@H]1NC(=O)[C@@H](NC(=O)[C@H](Cc2ccccc2)NC(C)=O)CSSC[C@@H](C(=O)N[C@H](C(=O)NCC(=O)N[C@@H](C)C(=O)N[C@@H](CCC(=O)O)C(=O)N[C@@H](CO)C(N)=O)[C@@H](C)O)NC(=O)[C@H](CCCNC(=N)N)NC(=O)[C@H](Cc2c[nH]cn2)NC(=O)[C@H](CCC(=O)O)NC(=O)CNC(=O)[C@H](Cc2c[nH]c3ccccc23)NC(=O)[C@H](CC(=O)O)NC(=O)[C@H](CCC(N)=O)NC(=O)[C@H](Cc2ccc3ccccc3c2)NC1=O
B10: Compound 68 (peptide)
peptide: Ac-YCI[Trp(1-Me)]QDWGEHRCTEAGS-NH2
modifications: disulfide 2-12
SMILES: CC[C@H](C)[C@@H]1NC(=O)[C@@H](NC(=O)[C@H](Cc2ccc(O)cc2)NC(C)=O)CSSC[C@@H](C(=O)N[C@H](C(=O)N[C@@H](CCC(=O)O)C(=O)N[C@@H](C)C(=O)NCC(=O)N[C@@H](CO)C(N)=O)[C@@H](C)O)NC(=O)[C@H](CCCNC(=N)N)NC(=O)[C@H](Cc2c[nH]cn2)NC(=O)[C@H](CCC(=O)O)NC(=O)CNC(=O)[C@H](Cc2c[nH]c3ccccc23)NC(=O)[C@H](CC(=O)O)NC(=O)[C@H](CCC(N)=O)NC(=O)[C@H](Cc2cn(C)c3ccccc23)NC1=O

What follows are binders tested against Human C3 (human, UniProt P01024 23-1663) (assay: cell-based or functional assay).
Human C3, sequence (P01024 23-1663 limits assumed): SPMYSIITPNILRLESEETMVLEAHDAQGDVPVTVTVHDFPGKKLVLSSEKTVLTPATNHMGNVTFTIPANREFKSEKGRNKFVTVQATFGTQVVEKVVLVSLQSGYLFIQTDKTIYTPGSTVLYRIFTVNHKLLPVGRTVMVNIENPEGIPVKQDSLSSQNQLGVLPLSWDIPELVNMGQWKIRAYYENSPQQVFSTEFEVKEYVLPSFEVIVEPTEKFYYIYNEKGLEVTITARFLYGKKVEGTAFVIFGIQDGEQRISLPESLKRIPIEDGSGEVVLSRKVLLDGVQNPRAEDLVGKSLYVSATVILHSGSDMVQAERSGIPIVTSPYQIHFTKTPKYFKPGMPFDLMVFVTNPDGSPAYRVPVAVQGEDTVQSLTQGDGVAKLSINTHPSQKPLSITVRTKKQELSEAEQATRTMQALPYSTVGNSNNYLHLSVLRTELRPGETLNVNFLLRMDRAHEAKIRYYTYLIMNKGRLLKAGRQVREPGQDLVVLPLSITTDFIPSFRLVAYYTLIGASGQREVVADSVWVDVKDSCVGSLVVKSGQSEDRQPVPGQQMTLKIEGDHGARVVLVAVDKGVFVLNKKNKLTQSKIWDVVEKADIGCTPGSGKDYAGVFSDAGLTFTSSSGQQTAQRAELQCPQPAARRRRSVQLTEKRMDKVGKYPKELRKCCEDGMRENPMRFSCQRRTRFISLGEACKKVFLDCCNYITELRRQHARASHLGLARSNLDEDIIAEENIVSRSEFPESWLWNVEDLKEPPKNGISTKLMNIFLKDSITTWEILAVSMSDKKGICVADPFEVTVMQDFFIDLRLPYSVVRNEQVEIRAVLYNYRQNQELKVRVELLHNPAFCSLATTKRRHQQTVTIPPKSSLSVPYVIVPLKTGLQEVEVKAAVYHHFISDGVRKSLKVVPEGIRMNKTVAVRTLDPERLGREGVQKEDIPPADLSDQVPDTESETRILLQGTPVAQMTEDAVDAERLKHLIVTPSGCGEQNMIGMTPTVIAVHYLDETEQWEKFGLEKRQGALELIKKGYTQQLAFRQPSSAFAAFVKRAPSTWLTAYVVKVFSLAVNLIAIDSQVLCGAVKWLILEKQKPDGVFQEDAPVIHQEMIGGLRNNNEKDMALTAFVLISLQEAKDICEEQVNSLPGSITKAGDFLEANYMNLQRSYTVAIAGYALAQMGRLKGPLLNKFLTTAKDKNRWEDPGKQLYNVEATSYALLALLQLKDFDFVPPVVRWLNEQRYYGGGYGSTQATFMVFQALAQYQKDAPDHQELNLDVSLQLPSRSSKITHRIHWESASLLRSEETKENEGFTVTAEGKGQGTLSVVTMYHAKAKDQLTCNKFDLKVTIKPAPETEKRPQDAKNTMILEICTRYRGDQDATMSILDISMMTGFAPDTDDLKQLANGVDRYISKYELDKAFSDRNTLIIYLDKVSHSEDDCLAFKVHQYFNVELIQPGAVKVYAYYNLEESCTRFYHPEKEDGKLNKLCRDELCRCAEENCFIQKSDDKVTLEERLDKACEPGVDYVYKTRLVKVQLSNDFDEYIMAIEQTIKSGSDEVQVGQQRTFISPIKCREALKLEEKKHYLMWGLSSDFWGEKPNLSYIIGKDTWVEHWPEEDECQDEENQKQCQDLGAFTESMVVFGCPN

Binder | IC50[nM], inhibition of hemolysis [nM]
B1 | < 100
B2 | < 100
B3 | < 100
B4 | < 100
B5 | < 100
B6 | < 100
B7 | < 100
B8 | < 100
B9 | < 100
B10 | < 100
